According to article PMC5102582 (eLife, 2016):
One block for each binder: values may come before it.

Assays:
[1] = biological target: the molecule itself; experiment: SEC; HiLoad 16/60 Superdex 200 gel filtration column, during purification of full-length p47
R95G ND1Lp97-ADP = biological target: T1, R95G ND1Lp97-ADP (Homo sapiens/Mus musculus (identical), UniProt P55072 1-480, R95G); experiment: NMR titration; one point: 150 µM UBXD1-N added to 50 µM (monomer) wt or mutant ND1Lp97-ADP (3:1); methyl-TROSY HMQC CSPs; Kd from the bound fraction by the V68 shift; 50°C; 25 mM HEPES pH 7.0, 50 mM NaCl, 10 mM ADP, 5 mM TCEP, D2O; conditions: both partners purified
T1 construct: p97/VCP, Homo sapiens/Mus musculus (identical), residues 1-480, IBMPFD disease mutation R95G; deuterated, ILVM-13CH3 labelled; mutation found in IBMPFD patients; also called R95G mutant; not shown: His6, N-terminal, cleaved
T1 sequence (P55072 1-480 R95G): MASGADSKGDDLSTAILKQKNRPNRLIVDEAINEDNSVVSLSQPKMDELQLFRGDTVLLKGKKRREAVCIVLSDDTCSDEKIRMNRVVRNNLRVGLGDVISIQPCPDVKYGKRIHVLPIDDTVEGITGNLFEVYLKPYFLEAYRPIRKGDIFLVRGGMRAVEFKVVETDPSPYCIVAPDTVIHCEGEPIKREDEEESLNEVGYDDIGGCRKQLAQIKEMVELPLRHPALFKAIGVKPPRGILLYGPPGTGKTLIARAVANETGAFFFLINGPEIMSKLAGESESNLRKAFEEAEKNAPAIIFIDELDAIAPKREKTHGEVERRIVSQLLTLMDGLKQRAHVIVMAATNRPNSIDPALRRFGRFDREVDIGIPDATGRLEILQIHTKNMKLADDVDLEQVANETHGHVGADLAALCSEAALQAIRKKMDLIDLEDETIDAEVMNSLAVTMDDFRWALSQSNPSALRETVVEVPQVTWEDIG

R155P ND1Lp97-ADP = biological target: T2, R155P ND1Lp97-ADP (Homo sapiens/Mus musculus (identical), UniProt P55072 1-480, R155P); experiment: as above; conditions: both partners purified
T2 construct: p97/VCP, Homo sapiens/Mus musculus (identical), residues 1-480, IBMPFD disease mutation R155P; deuterated, ILVM-13CH3 labelled; mutation found in IBMPFD patients; not shown: His6, N-terminal, cleaved
T2 sequence (P55072 1-480 R155P): as the sequence (P55072 1-480 R95G) above, with G95R, R155P counted along it

R155H ND1Lp97-ADP = biological target: T3, R155H ND1Lp97-ADP (Homo sapiens/Mus musculus (identical), UniProt P55072 1-480, R155H); experiment: as above; conditions: both partners purified
T3 construct: p97/VCP, Homo sapiens/Mus musculus (identical), residues 1-480, IBMPFD disease mutation R155H; deuterated, ILVM-13CH3 labelled; mutation found in IBMPFD patients; not shown: His6, N-terminal, cleaved
T3 sequence (P55072 1-480 R155H): as the sequence (P55072 1-480 R95G) above, with G95R, R155H counted along it

N387H ND1Lp97-ADP = biological target: T4, N387H ND1Lp97-ADP (Homo sapiens/Mus musculus (identical), UniProt P55072 1-480, N387H); experiment: as above; conditions: both partners purified
T4 construct: p97/VCP, Homo sapiens/Mus musculus (identical), residues 1-480, IBMPFD disease mutation N387H; deuterated, ILVM-13CH3 labelled; mutation found in IBMPFD patients; not shown: His6, N-terminal, cleaved
T4 sequence (P55072 1-480 N387H): as the sequence (P55072 1-480 R95G) above, with G95R, N387H counted along it

[2] = biological target: T5, wt ND1Lp97-ADP (p97/VCP residues 1-480: NTD, D1 and the D1-D2 linker) (Homo sapiens/Mus musculus (identical), UniProt P55072 1-480); experiment: NMR titration; methyl-TROSY 13C-1H HMQC chemical shift titration of ILVM-13CH3 wt ND1Lp97-ADP with perdeuterated UBXD1-N; global analysis of V68, L140, I175, I182; effective macroscopic Kd; 50°C; 25 mM HEPES pH 7.0, 50 mM NaCl, 10 mM ADP, 5 mM TCEP, D2O; a new sample for each ligand concentration; conditions: both partners purified
T5 construct: p97/VCP, Homo sapiens/Mus musculus (identical), UniProt P55072 versus Q01853, residues 1-480; highly deuterated, ILVM-13CH3 methyl labelled; 320 kDa hexamer (6 x 53 kDa); also called p97 ND1L 1-480; NDL1p97-ADP; not shown: His6, N-terminal, cleaved
T5 sequence (P55072 1-480): as the sequence (P55072 1-480 R95G) above, with G95R counted along it

B1: full-length p47 (natural protein, Mus musculus, UniProt Q9CZ44 1-370, looked up)
chain: MAEERQDALREFVAVTGTEEDRARFFLESAGWDLQIALASFYEDGGDEDIVTISQATPSSVSRGTAPSDNRVTSFRDLIHDQDEEEEEEEGQRFYAGGSERSGQQIVGPPRKKSPNELVDDLFKGAKEHGAVAVERVTKSPGETSKPRPFAGGGYRLGAAPEEESAYVAGERRRHSGQDVHVVLKLWKTGFSLDNGDLRSYQDPSNAQFLESIRRGEVPAELRRLAHGGQVNLDMEDHRDEDFVKPKGAFKAFTGEGQKLGSTAPQVLNTSSPAQQAENEAKASSSILINEAEPTTNIQIRLADGGRLVQKFNHSHRISDIRLFIVDARPAMAATSFVLMTTFPNKELADENQTLKEANLLNAVIVQRLT
notes: p47 (NSFL1 cofactor p47), Mus musculus, full length; perdeuterated; eluted as a trimer on gel filtration; also called p47 trimer; not shown: His6, N-terminal, cleaved
stoichiometry N [1]: 3

Kd (R95G ND1Lp97-ADP): ~200 µM
Kd (R155P ND1Lp97-ADP): ~200 µM
Kd (R155H ND1Lp97-ADP): ~80 µM
Kd (N387H ND1Lp97-ADP): ~80 µM
Kd [2]: 22 ± 2 µM
B2: UBXD1-N (N-terminal portion of UBXD1, residues 1-133) (domain or fragment, Mus musculus, UniProt Q99PL6 1-133, looked up)
chain: MKKFFQEIKADIKFKSAGPGQKLTDSAGEKTTKGKSPQLALRQPRQGPTDEAQMAAAAALARLEQKQPRARGPTSQDSIRNQVRKELQAEATSSNNPGAPGTNSVPEPKEEISPHLAVPGVFFICPLTGVTLR
notes: UBXD1, Mus musculus, residues 1-133 (holds H1/H2 and VIM, residues 52-63); perdeuterated; construct after Trusch et al., 2015; not shown: His6, N-terminal, cleaved
